This assay has as its target IL-1 receptor (human) (UniProt P14778). In words: cell-based or functional assay.
Chain of UniProt P14778 (P14778 18-569): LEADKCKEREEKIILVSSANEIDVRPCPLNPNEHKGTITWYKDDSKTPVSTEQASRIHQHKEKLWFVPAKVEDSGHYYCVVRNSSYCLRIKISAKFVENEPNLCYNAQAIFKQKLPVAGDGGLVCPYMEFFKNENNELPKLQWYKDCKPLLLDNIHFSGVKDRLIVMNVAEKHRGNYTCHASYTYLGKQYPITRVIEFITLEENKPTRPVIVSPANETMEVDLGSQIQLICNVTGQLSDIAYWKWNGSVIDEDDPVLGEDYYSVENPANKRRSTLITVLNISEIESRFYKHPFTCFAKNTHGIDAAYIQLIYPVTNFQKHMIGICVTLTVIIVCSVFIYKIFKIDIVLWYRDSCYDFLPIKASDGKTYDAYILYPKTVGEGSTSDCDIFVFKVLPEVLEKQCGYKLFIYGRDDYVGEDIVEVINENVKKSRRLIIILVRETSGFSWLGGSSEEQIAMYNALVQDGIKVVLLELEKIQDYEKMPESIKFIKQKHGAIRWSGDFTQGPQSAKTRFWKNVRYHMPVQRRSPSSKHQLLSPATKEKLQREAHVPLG

As for “IL-1 receptor antagonist (IL-1Ra) (from UniProt P18510 26-177) (ligand)”, the antiviral activity of IFN-gamma (endpoint of 50% protection from viral cytopathic effect, human WISH cells) is 125 IU/ml and the level of IL-18BP in HaCat culture supernatants after IFN-gamma (ELISA) came to 0.35 ng/mL.

Values taken from patent US20110177065A1.
